Measured values as given in patent US20150267232A1, “IN VIVO AND IN VITRO CARBENE INSERTION AND NITRENE TRANSFER REACTIONS CATALYZED BY HEME ENZYMES” (California Institute of Technology, priority 2012, published 2015).
Substitutions are numbered along the chain they refer to. Names and notes keep the numbering of the source.

Tests used:
[1] = N—H insertion, aniline with ethyl 2-diazopropanoate; type: biochemical; conditions: 10 μM catalyst, 20 mM aniline, 10 mM Na2S2O4, 10 mM ethyl 2-diazopropanoate
Method: The reactions shown in FIG. 37A were carried out with protein (20 μM), ethyl diazo acetate (8.5 mM), aniline (20 mM) and Na2S2O4 (10 mM) in phosphate buffer (pH 8) and allowed to shake at room temperature for 12 h. Yields are reported in parenthesis and TTN are presented in italics. Yields were determined by GC calibrated for each product. An isolated yield of 65% for compound 4.3 was determined for the milligram scale reaction run as follows: 25 mM EDA, 25 mM aniline, 25 μM protein, and 25 mM Na2S2O4. The reaction producing compounds 4.5 and 4.10 were carried out with protein (20 μM), ethyl diazo acetate (10.0 mM), aniline (20 mM) and Na2S2O4 (10 mM).
While substituted diazo compounds can also be used for insertion, the yield from N—H insertion of ethyl 2-diazopropanoate into aniline is only 26% (product 4.5). To improve efficiency of this reaction, we examined the reaction of ethyl 2-diazopropanoate with a variety of axial mutants. In particular, the axial mutant WT-AxA provided the desired product in 83% yield, compared to 8% yield and 1.7% yield with axial mutant WT-AxS and WT-BM3 heme domain, respectively (FIG. 37B).
(§1) The reactions shown in FIG. 37B were carried out with 10 μM catalyst loading, 20 mM aniline, 10 mM Na2S2O4 and 10 mM ethyl 2-diazopropanoate as described above. For the final entry in FIG. 37B, whole cells expressing BM3-CIS-T438S at 2.5 μM were used. See, U.S. Provisional Application No. 61/711,640 for the procedure for catalysis with whole cells.

[2] = Intramolecular carbene C—H insertion, substrate 4.1a; type: biochemical; conditions: for Yield %: 10 mM 4.1a, 10 uM P450, 10 mM Na2S2O4, product 4.2a
Method: Yield of product 4.22b was established after calibration with phenethyl alcohol as an internal standard. The reaction is not catalyzed by the WT-BM3 heme domain or hemin at 5% catalyst loading.
A representative procedure for P450-catalyzed C—H insertion is as follows: A vial containing WT-AxD (20 μL, 200 μM) was sealed with a teflon cap and the headspace of this vial was purged with argon for 5 min. Concurrently, a solution of sodium dithionite (11 mM in phosphate buffer pH=8) was degassed for a minimum of 5 min and 360 μL of this solution was transferred to the vial containing protein. The gas lines were disconnected from the vials. The substrate 4.1a or 4.1b was then added as a solution (20 μL, 200 mM). Final concentrations of all components were: 10 uM enzyme, 10 mM substrate, and 10 mM dithionite. […]
The mixture was extracted with 1 mL cyclohexane and analyzed by GC-MS or GC. GC-MS was performed on a Shimadzu TQ8030 GC-MS with ion count detector and J&W HP-5 column (30 m×0.32 mm, 0.25 μm film) using the following method: 90° C. (hold 2 min), 90-190° C. (20° C./min), and 190-230 (40° C./min)

[3] = N—H insertion, aniline with ethyl 2-diazopropanoate, whole cells; type: cell-based; conditions: whole cells expressing enzyme at 2.5 μM
Method: as §1

B1: WT-BM3 heme: WT heme domain (amino acids 1-463 of SEQ ID NO: 1) (protein, listed as Bacillus megaterium)
chain: TIKEMPQPKTFGELKNLPLLNTDKPVQALMKIADELGEIFKFEAPGRVTRYLSSQRLIKEACDESRFDKNLSQALKFVRDFAGDGLFTSWTHEKNWKKAHNILLPSFSQQAMKGYHAMMVDIAVQLVQKWERLNADEHIEVPEDMTRLTLDTIGLCGFNYRFNSFYRDQPHPFITSMVRALDEAMNKLQRANPDDPAYDENKRQFQEDIKVMNDLVDKIIADRKASGEQSDDLLTHMLNGKDPETGEPLDDENIRYQIITFLIAGHETTSGLLSFALYFLVKNPHVLQKAAEEAARVLVDPVPSYKQVKQLKYVGMVLNEALRLWPTAPAFSLYAKEDTVLGGEYPLEKGDELMVLIPQLHRDKTIWGDDVEEFRPERFENPSAIPQHAFKPFGNGQRACIGQQFALHEATLVLGMMLKHFDFEDHTNYELDIKETLTLKPEGFVVKAKSKKIPLGGIPSPST
modifications: cytochrome P450NADPH-P-450 reductase precursor, cytochrome P450 (BM3), CYP102A1
**Q.** Which “yield of product 4.5” value [1] does the source give for B1 here?
**A.** Its value is 1.7%.

**Q.** And the Yield % [2]?
**A.** Its Yield % is 0%.

**Q.** What about the “lactone formation via C—H bond insertion” value ([2]; substrates 4.1a and 4.1b, 10 μM variant or hemin at 5% catalyst loading, 16 h) of the same molecule?
**A.** The value was “not catalyzed”.

B2: WT-AxY: WT heme domain + C400Y (protein, listed as Bacillus megaterium)
chain: B1 chain with C400Y
modifications: cytochrome P450NADPH-P-450 reductase precursor, cytochrome P450 (BM3), CYP102A1
notes: WT heme domain + C400Y
**Q.** For B2, which Yield % [2] is on record?
**A.** The Yield % was “trace”.

B3: WT-AxA: WT heme domain + C400A (protein)
chain: B1 chain with C400A, T438S, E442K
modifications: synthetic cytochrome P450-BM3 variant WT-AxA (heme)
notes: WT heme domain + C400A
**Q.** Which “yield of product 4.5” value [1] does the source give for B3 here?
**A.** Its value is 83%.

**Q.** And the Yield % [2]?
**A.** Its Yield % is “trace”.

B4: WT-AxS: WT heme domain + C400S (protein, listed as Bacillus megaterium)
chain: B1 chain with C400S
modifications: cytochrome P450NADPH-P-450 reductase precursor, cytochrome P450 (BM3), CYP102A1
notes: WT heme domain + C400S
**Q.** With B4 as the molecule, how does the “yield of product 4.5” value [1] read?
**A.** Its value is 8%.

B5: BM3-CIS-T438S: BM3-CIS + T438S (protein, listed as Bacillus megaterium)
chain: TIKEMPQPKTFGELKNLPLLNTDKPVQALMKIADELGEIFKFEAPGRVTRYLSSQRLIKEACDESRFDKNLSQALKFARDFAGDGLVTSWTHEKNWKKAHNILLPSFSQQAMKGYHAMMVDIAVQLVQKWERLNADEHIEVSEDMTRLTLDTIGLCGFNYRFNSFYRDQPHPFIISMVRALDEVMNKLQRANPDDPAYDENKRQFQEDIKVMNDLVDKIIADRKARGEQSDDLLTQMLNGKDPETGEPLDDGNIRYQIITFLIAGHEATSGLLSFALYFLVKNPHVLQKVAEEAARVLVDPVPSYKQVKQLKYVGMVLNEALRLWPTAPAFSLYAKEDTVLGGEYPLEKGDEVMVLIPQLHRDKTVWGDDVEEFRPERFENPSAIPQHAFKPFGNGQRACIGQQFALHEATLVLGMMLKHFDFEDHTNYELDIKETLSLKPKGFVVKAKSKKIPLGGIPSPSTEQSAKKVRKKAENAHNTPLLVLYGSNMGTAEGTARDLADIAMSKGFAPQVATLDSHAGNLPREGAVLIVTASYNGHPPDNAKQFVDWLDQASADEVKGVRYSVFGCGDKNWATTYQKVPAFIDETLAAKGAENIADRGEADASDDFEGTYEEWREHMWSDVAAYFNLDIENSEDNKSTLSLQFVDSAADMPLAKMHGAFSTNVVASKELQQPGSARSTRHLEIELPKEASYQEGDHLGVIPRNYEGIVNRVTARFGLDASQQIRLEAEEEKLAHLPLAKTVSVEELLQYVELQDPVTRTQLRAMAAKTVCPPHKVELEALLEKQAYKEQVLAKRLTMLELLEKYPACEMKFSEFIALLPSIRPRYYSISSSPRVDEKQASITVSVVSGEAWSGYGEYKGIASNYLAELQEGDTITCFISTPQSEFTLPKDPETPLIMVGPGTGVAPFRGFVQARKQLKEQGQSLGEAHLYFGCRSPHEDYLYQEELENAQSEGIITLHTAFSRMPNQPKTYVQHVMEQDGKKLIELLDQGAHFYICGDGSQMAPAVEATLMKSYADVHQVSEADARLWLQQLEEKGRYAKDVWAG
modifications: cytochrome P450NADPH-P-450 reductase precursor, cytochrome P450 (BM3), CYP102A1
**Q.** What does the source list for B5?
**A.** enantioselectivity [3]: 7%; yield of 4.5 [3]: 17%
